Test: soluble on expression in E. coli; label from the status in PepcDB or PDB records

Soluble on expression in E. coli, soluble:
MAHHHHHHMPVKRSNKVHKFHEGTGDDNMPVVSMFVVKDGDEPFTRIDVELFVNKVPKACDLFLQTCAFPTVGDKRNAKRGSYKGCRFVRLTKEALQVADGSGPRAVPLSELEAEIGRVNHGVGIASLCRSSTSFDESFFFCLTDNRLELDSLDKRHVAFGRVTGGLDALMGLRDALVPYVQEGCVIVGSPYAVSEVVPKAKQ
MAHHHHHHMQANLWLKGQTSTPLQRICDPVPNLLISQSSQGGQRALWLLHRPESVLGLVVSPQWQGESGDHELCDASVVSKRKIVRVMKHLHSLPFRVAGSSPLRPPMVVHKNHLVGWRIDGKAAPLYAHTLDQLAKLKPTQFKTIEPKNAFICRTYYEWDNWKEVSMEPGWTWHHVDEEIANNILDGTLTFDGLRATATDTP
MAHHHHHHMQKTILQILREQDDASSSCVLALLKGNASFQCLSKSEGEDILKRDNEDAEKLSDGIRIAIRKGIVSGKPDVSPVNKLNVVGLSAQEVTDKIVAALPSKNGNVIILQGLSGTGKGTTVSKLKDALPKCVTWSNGNIFRSYTYLCNEVLAAQGKEITEESLTDELLSSVEKRVTFVKCEDGMFHTMLDGTRRVADVQNTLLKTPLISSKVPTVAQQTQGEVIRFGAGAVKQLSADGYNVILEGRSQTLDYISSPLRFELIIPDVEVLGQRRAAQRVMAKALEMLDDSASDEEVSKVLVKAVETLQ
MAHHHHHHMRLASPFSRAAWQLQETHNLSPLLRRRACAAPVAATSPSAFCTARRCLSQQASHWLNKLRYGADDAPTMGSWDSAYEDDAMDTRKLYCKALVHASGGSRLARDWIAGCAALTSPDPSLIYTALQHAATEADVEELREHILGRLLAQESPRRGGRSGGSCDNEVRTSFGMYEESEREVVVPGTGNVAVKRAVAPNCAGQSSIHERDGKDGASEATSPPITSEGIRDAEHYLLQRSREVRCFMYDAMTASLFHSNNDLRTVEAARRHTFWIGLTQFGLSFDELTALWRLVEAELLLKKEKIKVLGQPWGE

Soluble on expression in E. coli, not soluble:
MAHHHHHHMNGELNIGAGRVIFYRTIAKQNRNTLPLWTLQRHLYAYHPYVWFAIASASNAEAMEKLAERLGMKLVQDATTSYKISIRRSSELLDGELNAQLQCTKMNRPWDRFLITHYVRSQMPDLRFLVRARHPIKKRVTDAYLEADILRSTRDSVQSVLSPELGEVCYCCERVIRKWAMRTQTGVTLQLVETRRTPLIITKAGDEGERLEYEWIVVLPQKAERIDIAALSAELWDYGNVLARELEPGMEEFLSHTMTAAASY
MAHHHHHHMNGTRRFSAAPVNFDRFIALAHSYSRSLSPDRELDQMLRPFQGRAAASTSTATRESTASRVATPQRRHQQMRNGELIDKGSVSTEAEVGKPYWGTTESVAMTRSTTASNTVFSTRAATSTSRTVSGGAAETTSAVSTRSSYLVHSSCPVGEETQELGSGSYSADEVDPLLQAAMQLGSPLYDPVKRQFVCWQLHALEKRPRAAYGDVEGVSCDFCGHTDWLEGVPERATSSPSASATVANADEGKMDTHAPSAAASFTAHARFFYNCSACQVDVCQACLEEVRSDERLHVPCFQCQRCGGYETRQNAPLHRCAEVTRISDDEGSTGVQALLTSPRSNVDASQALPAAPATSSPKYRGVPVGRPVRLGLCRRFQQAVEAVAAPDTEIAAHAGKIANSTPHRKRKRASPEAALVPKQRSGKTTNDTAEVFRVSDVSDKSCRKVRRASASALPKPAPPKQEADDADGDASRALVEAALLPFARYEVHLTPRTAEEVGEVGRIAREQHLVCSPLPSLAKTCVFYFTTRLAAETCVDRATAASLDAILKQSVTPVCRT
MAHHHHHHMNIKRSIYHYLSYSSFLIKNHYHHNNTIYPCFHSLRNNNKMSYFRPNYFICIPIKNDNICNELINIQKHVLVKYDELKDCIIERNKFHISLLILHIKKNQIELSKEAFNEAMEKIKKNMHNEKICFEKLDTFRNDVLYLSLKEDSNKYIINIINHLIDSFSKRGIKIIFNNKKPAKEILSNNNKKELNKNSNDLQHITPHLTLMKNSYMKKMYMNKKPQILPFFYTDYDLTNLLKEQIDIQKIQFLEMDMDTSTSYYKIVSEFNL
MAHHHHHHMNLRSLVPSDKQLTEEQQSHIQDLQDEIDEIWSRRGDYKIDDKAWEHMPLFMETITEEDMQKNADCAALASIAYDEVPPEDIAESRKQHGNRAIQLALNPEQVNKENLARAAAHCYTEGLNAKCKDPILNSQLYANRSLAQYIIQNYGHGLEDAQRAIILNPDYSKAYYRAARCAERVKKYDLAIDLLSKGRCTNPPPEGIALEEFEELERVCREGMKKFQKKEKEDSIRTRVRAAETSSLMRALTSYGIRLSPTPEVSSEQMGVYGQHQPYFDAVGLLHVPILFMYDEYQQTDFMQDVTCDVSTAELLDEIMPFPWDDRGRYRHMNEVVVFFKIDDGVKMAEYYEVDLSWPLMEVFRSESYKMPMLLPVLHVVCRSSELLQHWKPQKPR
MAHHHHHHMPEPLEETFSRVLSAKVARAKRVFGGDINETYRLEMEKDDVVYFLKLQRGTTADFYAAESLGLSLLSDVARTPRVVQTGEVNGDAYLIMTWIQSFPSAMRGGVRRNMAELGRMVAIVHRQTSPNGQFGSSVAVPLAGCKTSAGWSKDWATYYIESLLAPQVALARRKGYWSDRREAMFVAFSKRFCAFYASKKNVQPSLLHGDLWGGNVMYGESGEPYLIDPSSYYGHREVDIAMTRLFGGFGSEFYTAYEGEMPLEAGHASRVPWYQLLPLLCHLNLFGEAYGSSVDSAMAHVL
MAHHHHHHMPFVDHNKYKIQREDLPALPHFTDFNDPRFCGTNNKQKNGILAYYQWLHCVGNWGEEHSMCKKMRWYVERMMQEVWLEKWEEKRALGHFDHVLLYGVKPWKDFEPLYQPVKTNRKGAYEFWLDRDFEPLYDADASDFCEKAPILHDIFVKGKKPVYDE
MAHHHHHHMPYNALVSSHLAELTLCKLAELMVPNDFNLFVLAIKDDLLSKALEDHSLFVFLSAAFVNAIIPKLKELKLEEDKDDSPHLCALRVRPHERPFKPRLLECLKDFKGKINAECRVLYKPEAKNFPLVDGFFFVESKPKIMVGLQMTTASEHHTIPSTVNLFKENMAKYFNGWEKFSRDMLWEIIYIQHADSTPLDGWQRCDYVNPRNKTDAENEIVAFWNGKVHQYQFVLTTEFVSKIREMKM
MAHHHHHHMQCSSLKTGCLKLLSQLPEGLQQAGRTAVSAHQRSYCPYSNFAVGAALLHDDGKVTSGCNYETCVYKGTCAEACAIVKANMDGYRTAQAVAIYGRSVLPTAAAAAADATVPPCGFCRQLLAEVADLSGNMNDFLVVLVTFDQEHARLFRLSELLPQPFGPSSIGMDVAALATGEHSRCPGTF
MAHHHHHHMQGTGAVSASHCTFNQRSGVSKKEELGDAMKVDNVFPGGPKKDVLVSCANKSRQTAAGIFVHWCCRCESETSGDRGNVCEFFGDCECDDIYSTSNVPKCVKGDHMWRDSSTALRAVLQDVKGRDACNISTPNGKEILMKLTREELTSNIAPQDSSSKIFLFLLAALLMQDESVAQTSN
MAHHHHHHMQRSMMRELCYVGSVALSPMRPKKNAFKLRERGETTRLFCANSEMSNFYGINESGFSNTRPPPYLLRFDKCNDVIAYTNEIDNESLKQIKNLAKLHIIKGHITILPDVHLGKGIIIGSVFLTKHFIIPNGVGVDIGCGVLCVKINKLKKKNLHEGVINNIYKKIKRNIPLSFDYHEKEVFDAKNVLDELVAKYASSNMAHIMNPKHLKQMGTLGGGNHFIEIAYDASGDVKAEPINGNLSGEAHQNDNTQKYACQQNHYPESDIYILIHSGSRNIGKSTAEFYDDLASHESKVKRNDLAYLDLRKKHGQNYLRDMQLCQEYAKYNRIYMMKIIEQIIKEELNCTLDWQNAINIHHNFCNHELVNYFHNGEVKKEYMYVTRKGATSSMKNQLGIIPGNMKVGSYIVRGKGNKLSYNSCSHGCGRVLSRTHAKKIINQADFVNIMKGVRCDTSAKIRDEATQAYKNLNKVLRNQDSLIHVVRRLLPLINVKGG
MAHHHHHHMRAEIPGVVPAVVSQVSEHQLPHLYPRHTAVTDSTALPREKSTLQRTDTTDSQLFSLADLQLARGNTRRPSRSRPTSPIRKDRIPRPPSVEFDVHLEVPRPHIRVSALPKHVMWPLPIPLPNLGNTCYMNSVVQCLRQSPSLALALEQCQLNAESHPAAAAMLNFFRMSEGDPKEFLVTFKSEAAKYNDEFKDFTQADAHEFLRTFLSVVHNEINTAPRAKLHIDDMGYVGKEDEETAFGMWRDQFACFDKSPIYDLFGGTTLGTCFCNSCENSSRTFEAFLDLSLPIGHEMPFGANLEAILQANFVEGKAEKMDGSNRIYCSRCKRLRSGSRCVVVRQWPKLLVLHLKRFDEYGKKNLVNVIYPETFMTGGEKSLRYSLYGVLMHSGTEMSGHYTSYVRVAFGEWYLCNDGAITPSRSVDVMQELEKAYILFYAEVPQVEPTFF
MAHHHHHHMRCVRVVCQRFVEFVTFCSGVVPPLALLGYPLPGSGCQKTHPTALSLKGARVGDADAGNADTWLSRAIPRNWAAFCVNLQARGVGLVTVGLSYGSPSVVVRQVLGWGCGGNELRLYGFCRSSVLCRVWGVSVPLSAFTPCSVDDSIFSLLRYRIFRACAS
MAHHHHHHMRGCLHFTRVARHKRHDKGGNAHNFAFDTLTKVYRDAVYLPQEKYRRGLMHPERSPGAPPSQAALVAPSSSSDVTNHVGNIGVMSSVATKLSDWMEQQPHHQTKHHTNGGGGTGHASATASCATPIARRSVASSSPSPAPSAAAATTDESHVDDEAIRRRLRAHLFSDKIQPGQPRTPPSTPVATASASPRRSGVQAEILSVYRSMLREVSRMQDADTRRSLSAYIRQEYDKQCDIPRKNIMKIEWRLNYGKRKLEELQAMSKHTKFTMMR
MAHHHHHHMRIHAPPYPFFNFLFLCFHTEPRRIPRRTVSYTQVVPASIFHGMADRALTCVRPAAYFLPGDRASSFLSSGAILLFEERVCTPHKASESTVCPVAGHSKVFAPSCYVEPFSIIEVALEERRNRVGRMSWCFRLFAIKLRGGNPTQFPPPASSVEHVQV
MAHHHHHHMRNLSDQFPVEDSPMNARRQMANGDDHSQRDSPMNHDVAHTYEGNTLDGHLTKAESASMTKTPTAAANGACANSAPSEYVVAKERLEAARAAHKQRLREIKDDKSLKIKSMPSLEELRDERVRLSEQVLHHKDEQDSLALDIEGLEGAAEVYQLAARVQRLEHFANRAYEYAEETLPRDIERTLEEDRQLSNRELCAYIQELQSKRANTLKKVVASQEGMVKRNLRKGATATTAALGEDADPMEAKAVAHTQENKDECVVLHQKIRRFCAMRTKLQSDILKEKSASKKMEERMCAAIRTAELANARDARMCGELNNRNAAATTNSQLLIDQLNVGHYGLGNAPSTKQLLEDRKAREALLETTETDQQQYGRFVSSGSLGSRQSYANSQSSHQRAIKPPLVASKPTAAQRARDDASRSSREEFAQMLRRNSDGNSYQASRSQSLSKPPLVASKPTASQQSRETALRGEREEVSVSRTVARSNSLFSDVRPPSLAAKSTASQRSRDRQ
MAHHHHHHMRSNCAPLGRVKIRILDLTVLSEDASDFVYDGLYVVSRLGPDAQRTNILCNGADSAGGRCWNEVFMFHFEGNPPEFRETAPTLSKSGLDVTVGQHISTYHDGPSLGNPSREYILPQQPHEVKRGLLAPPWMGGSCALPAITLELWRYSLSSDDCLARYQFCIPLEMSSGNIADRVVRLASASSYSVQFALRIRVALSGYDGGALGFENYMPAMSPANLPVLWRH
